# Measurements published in paper PMC4362373.
# Target: recombinant human IL-1RI Fc chimera (human) (UniProt P14778)
# Experiment: ELISA
# Chain of UniProt P14778 (P14778 18-336, change not shown): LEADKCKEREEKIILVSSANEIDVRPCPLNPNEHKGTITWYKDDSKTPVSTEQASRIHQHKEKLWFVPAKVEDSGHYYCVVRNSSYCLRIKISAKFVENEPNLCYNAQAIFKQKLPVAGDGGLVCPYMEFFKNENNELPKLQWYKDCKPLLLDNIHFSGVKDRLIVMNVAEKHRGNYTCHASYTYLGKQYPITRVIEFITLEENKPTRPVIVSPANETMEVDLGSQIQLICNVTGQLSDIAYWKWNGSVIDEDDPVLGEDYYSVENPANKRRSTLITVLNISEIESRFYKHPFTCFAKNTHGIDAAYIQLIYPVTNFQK
substance,measurement,value
hIL-1b(D145K) (ligand),fold reduction of affinity against wild-type IL-1β,3500 fold
